From US20100098706A1 (LFB BIOTECHNOLOGIES, published 2010)

How the values were obtained:
[1] = molecular target: T1, human CD16 receptor (FcgammaRIIIa) (human, UniProt P08637 17-254); experiment: cell-based or functional assay
[2] = molecular target: T2, human LDL (Low Density Lipoprotein) receptor (human, UniProt P01130 22-860); experiment: binding to melanoma cell lines; method not described
T2 construct: whole, on cells; no recombinant LDL-R was tested; also called LDL-R; human LDL-R

[3] = molecular target: T1, human CD16 receptor (FcgammaRIIIa); experiment: flow cytometry on NK cells; competition with 3G8-PE; antibody at 50 µg/ml; reference Rituxan®
Method: The binding to the CD16 receptor is evaluated by a murine anti-CD16 antibody (3G8) competition test.
The effector cells (NK cells) are purified by the negative depletion kit (NK Cell Isolation Kit, Myltenyi, Paris, France), starting with peripheral blood from healthy donors. Then, the NK cells are incubated with variable concentrations (0, 10 and 50 μg/ml) of antibodies to be evaluated and the anti-CD16 antibody (3G8) coupled to a fluorochrome (3G8-PE) at a fixed concentration.
After washing, the binding of the 3G8-PE to the CD16 receptor of the NK cells is evaluated by flow cytometry.

[4] = molecular target: T1, human CD16 receptor (FcgammaRIIIa); experiment: cell-based or functional assay; remark: listed apart in the source

T1 sequence (P08637 17-254): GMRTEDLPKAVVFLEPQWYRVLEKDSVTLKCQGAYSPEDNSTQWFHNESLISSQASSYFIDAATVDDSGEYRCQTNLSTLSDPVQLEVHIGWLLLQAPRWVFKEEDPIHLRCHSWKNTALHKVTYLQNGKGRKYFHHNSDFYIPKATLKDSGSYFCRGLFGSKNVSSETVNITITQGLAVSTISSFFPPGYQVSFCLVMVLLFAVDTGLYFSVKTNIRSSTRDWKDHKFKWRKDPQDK
T2 sequence (P01130 22-860): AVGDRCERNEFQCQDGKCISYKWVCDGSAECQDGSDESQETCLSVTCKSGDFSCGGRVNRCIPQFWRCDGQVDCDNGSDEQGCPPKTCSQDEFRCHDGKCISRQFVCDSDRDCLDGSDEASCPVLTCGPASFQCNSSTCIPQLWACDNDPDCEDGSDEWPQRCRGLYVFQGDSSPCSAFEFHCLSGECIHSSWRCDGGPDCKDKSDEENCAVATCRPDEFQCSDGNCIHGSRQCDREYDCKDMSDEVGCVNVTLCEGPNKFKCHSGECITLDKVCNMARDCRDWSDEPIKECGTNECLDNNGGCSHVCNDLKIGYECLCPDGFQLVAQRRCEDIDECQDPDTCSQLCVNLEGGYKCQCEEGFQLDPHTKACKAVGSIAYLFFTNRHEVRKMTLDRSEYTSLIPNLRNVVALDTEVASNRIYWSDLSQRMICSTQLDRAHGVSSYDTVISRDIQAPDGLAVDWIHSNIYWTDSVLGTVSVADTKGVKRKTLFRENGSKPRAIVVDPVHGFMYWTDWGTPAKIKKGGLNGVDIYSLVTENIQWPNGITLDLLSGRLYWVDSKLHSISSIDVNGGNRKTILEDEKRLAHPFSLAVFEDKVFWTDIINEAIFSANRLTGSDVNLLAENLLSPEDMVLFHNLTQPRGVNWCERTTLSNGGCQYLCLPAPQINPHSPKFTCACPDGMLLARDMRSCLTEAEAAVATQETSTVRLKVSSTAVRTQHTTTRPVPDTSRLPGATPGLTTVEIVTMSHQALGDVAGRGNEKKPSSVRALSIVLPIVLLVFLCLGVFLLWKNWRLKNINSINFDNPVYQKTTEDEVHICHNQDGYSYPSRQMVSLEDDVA

B1: anti-LDL-R chimeric antibody EMAB604 (antibody, human IgG1, kappa)
heavy: not shown
light: DVLMTQTPLSLPVSLGDQASISCRSSQSILHSSGIAYLEWYLQKPGQSPKLLIYKVSNRFSGVPDRFSGSGSGTDFTLKISRVEAEDLGVYYCFQGSHVPWTFGGGTKLEIKRTVAAPSVFIFPPSDEQLKSGTASVVCLLNNFYPREAKVQWKVDNALQSGNSQESVTEQDSKDSTYSLSSTLTLSKADYEKHKVYACEVTHQGLSSPVTKSFNRGEC
notes: The cloned V fragments contain the natural signal peptide of C7; also called anti-LDL-R (EMAB604); chimeric antibody C7
ADCC EC50, HT-144 target cells, NK effector cells [1]: 0.45 µg/mL | binding result [2]: binds | fold binding against Rituxan® [3]: ~3 fold | ADCC EC50, GUY 17.2 target cells, NK effector cells [4]: 0.45 µg/mL
